This is an account of results in doi:10.1101/2019.12.19.882696.

The target of the test is Cys-OmpX labelled with Alexa Fluor 488 (E. coli) (UniProt P0A917). The test can be described thus: MST.

As for “E. coli SurA wild type (mature, tag cleaved) (from UniProt P0ABZ6 21-428) (natural protein)”, the Kd – broadly, the concentration at which binding is half-saturated – was found to be 800 nM.
